{"source": "patent US12104181B2", "about": "“Compositions and methods for treating viral infections targeting TRIM7” (THE BOARD OF REGENTS OF THE UNIVERSITY OF TEXAS SYSTEM, priority 2021, dated 2024)", "test_system": "coxsackievirus B3 (CVB3-GFP)", "format": "cell-based", "details": "HeLa cells, replicate R1; for Percent Infected R1: GFP-positive cells within RFP-positive gate", "data": [{"molecule": "RNF14: human RING type E3 ligase expressed from lentiviral vector (protein, UniProt Q9UBS8 1-474, looked up, lentiviral expression, human RING type E3 ligase expressed from lentiviral vector) E3 ubiquitin-protein ligase …: MSSEDREAQEDELLALASIYDGDEFRKAESVQGGETRIYLDLPQNFKIFVSGNSNECLQNSGFEYTICFLPPLVLNFELPPDYPSSSPPSFTLSGKWLSPTQLSALCKHLDNLWEEHRGSVVLFAWMQFLKEETLAYLNIVSPFELKIGSQKKVQRRTAQASPNTELDFGGAAGSDVDQEEIVDERAVQDVESLSNLIQEILDFDQAQQIKCFNSKLFLCSICFCEKLGSECMYFLECRHVYCKACLKDYFEIQIRDGQVQCLNCPEPKCPSVATPGQVKELVEAELFARYDRLLLQSSLDLMADVVYCPRPCCQLPVMQEPGCTMGICSSCNFAFCTLCRLTYHGVSPCKVTAEKLMDLRNEYLQADEANKRLLDQRYGKRVIQKALEEMESKEWLEKNSKSCPCCGTPIEKLDGCNKMTCTGCMQYFCWICMGSLSRANPYKHFNDPGSPCFNRLFYAVDVDDDIWEDEVED", "values": [{"measurement": "Percent Infected R1", "result": 95.5, "unit": "%"}, {"measurement": "Z score R1", "result": 0.09}]}, {"molecule": "MARCH2: human RING type E3 ligase expressed from lentiviral vector (protein, UniProt Q9P0N8 1-246, looked up) E3 ubiquitin-protein ligase …: MTTGDCCHLPGSLCDCSGSPAFSKVVEATGLGPPQYVAQVTSRDGRLLSTVIRALDTPSDGPFCRICHEGANGECLLSPCGCTGTLGAVHKSCLEKWLSSSNTSYCELCHTEFAVEKRPRPLTEWLKDPGPRTEKRTLCCDMVCFLFITPLAAISGWLCLRGAQDHLRLHSQLEAVGLIALTIALFTIYVLWTLVSFRYHCQLYSEWRKTNQKVRLKIREADSPEGPQHSPLAAGLLKKVAEETPV", "values": [{"measurement": "Percent Infected R1", "result": 92.4, "unit": "%"}, {"measurement": "Z score R1", "result": 0.05}]}, {"molecule": "RNF150: human RING type E3 ligase expressed from lentiviral vector (protein, UniProt Q9ULK6 35-438, looked up) RING finger protein 150: EKEEWYTAFVNITYAEPAPDPGAGAAGGGGAELHTEKTECGRYGEHSPKQDARGEVVMASSAHDRLACDPNTKFAAPTRGKNWIALIPKGNCTYRDKIRNAFLQNASAVVIFNVGSNTNETITMPHAGVEDIVAIMIPEPKGKEIVSLLERNITVTMYITIGTRNLQKYVSRTSVVFVSISFIVLMIISLAWLVFYYIQRFRYANARDRNQRRLGDAAKKAISKLQIRTIKKGDKETESDFDNCAVCIEGYKPNDVVRILPCRHLFHKSCVDPWLLDHRTCPMCKMNILKALGIPPNADCMDDLPTDFEGSLGGPPTNQITGASDTTVNESSVTLDPAVRTVGALQVVQDTDPIPQEGDVIFTTNSEQEPAVSSDSDISLIMAMEVGLSDVELSTDQDCEEVKS", "values": [{"measurement": "Percent Infected R1", "result": 91.1, "unit": "%"}, {"measurement": "Z score R1", "result": 0.03}]}, {"molecule": "RNF8: human RING type E3 ligase expressed from lentiviral vector (protein, UniProt O76064 1-485, looked up, lentiviral expression, human RING type E3 ligase expressed from lentiviral vector) E3 ubiquitin-protein ligase …: MGEPGFFVTGDRAGGRSWCLRRVGMSAGWLLLEDGCEVTVGRGFGVTYQLVSKICPLMISRNHCVLKQNPEGQWTIMDNKSLNGVWLNRARLEPLRVYSIHQGDYIQLGVPLENKENAEYEYEVTEEDWETIYPCLSPKNDQMIEKNKELRTKRKFSLDELAGPGAEGPSNLKSKINKVSCESGQPVKSQGKGEVASTPSDNLDPKLTALEPSKTTGAPIYPGFPKVTEVHHEQKASNSSASQRSLQMFKVTMSRILRLKIQMQEKHEAVMNVKKQTQKGNSKKVVQMEQELQDLQSQLCAEQAQQQARVEQLEKTFQEEEQHLQGLEIAQGEKDLKQQLAQALQEHWALMEELNRSKKDFEAIIQAKNKELEQTKEEKEKMQAQKEEVLSHMNDVLENELQCIICSEYFIEAVTLNCAHSFCSYCINEWMKRKIECPICRKDIKSKTYSLVLDNCINKMVNNLSSEVKERRIVLIRERKAKRLF", "values": [{"measurement": "Percent Infected R1", "result": 82.8, "unit": "%"}, {"measurement": "Z score R1", "result": "−0.07"}]}, {"molecule": "RNF152: human RING type E3 ligase expressed from lentiviral vector (protein, UniProt Q8N8N0 1-203, looked up, lentiviral expression, human RING type E3 ligase expressed from lentiviral vector) E3 ubiquitin-protein ligase …: METLSQDSLLECQICFNYYSPRRRPKLLDCKHTCCSVCLQQMRTSQKDVRCPWCRGVTKLPPGFSVSQLPDDPEVLAVIAIPHTSEHTPVFIKLPSNGCYMLPLPISKERALLPGDMGCRLLPGSQQKSVTVVTIPAEQQPLQGGAPQEAVEEEQDRRGVVKSSTWSGVCTVILVACVLVFLLGIVLHNMSCISKRFTVISCG", "values": [{"measurement": "Percent Infected R1", "result": 97.4, "unit": "%"}, {"measurement": "Z score R1", "result": 0.11}]}, {"molecule": "RNF180: human RING type E3 ligase expressed from lentiviral vector (protein, UniProt Q86T96 1-592, looked up, lentiviral expression, human RING type E3 ligase expressed from lentiviral vector) E3 ubiquitin-protein ligase …: MKRSKELITKNHSQEETSILRCWKCRKCIASSGCFMEYLENQVIKDKDDSVDAQNICHVWHMNVEALPEWISCLIQKAQWTVGKLNCPFCGARLGGFNFVSTPKCSCGQLAAVHLSKSRTDYQPTQAGRLMRPSVKYLSHPRVQSGCDKEALLTGGGSENRNHRLLNMARNNNDPGRLTEALCLEVRPTYFEMKNEKLLSKASEPKYQLFVPQLVTGRCATRAFHRKSHSLDLNISEKLTLLPTLYEIHSKTTAYSRLNETQPIDLSGLPLQSSKNSYSFQNPSSFDPSMLLQRFSVAPHETQTQRGGEFQCGLEAASVYSDHTNTNNLTFLMDLPSAGRSMPEASDQEEHLSPLDFLHSANFSLGSINQRLNKRERSKLKNLRRKQRRRERWLQKQGKYSGVGLLDHMTLNNEMSTDEDNEYAEEKDSYICAVCLDVYFNPYMCYPCHHIFCEPCLRTLAKDNPSSTPCPLCRTIISRVFFQTELNNATKTFFTKEYLKIKQSFQKSNSAKWPLPSCRKAFHLFGGFRRHAAPVTRRQFPHGAHRMDYLHFEDDSRGWWFDMDMVIIYIYSVNWVIGFIVFCFLCYFFFPF", "values": [{"measurement": "Percent Infected R1", "result": 93.2, "unit": "%"}, {"measurement": "Z score R1", "result": 0.06}]}, {"molecule": "MARCH1: human RING type E3 ligase expressed from lentiviral vector (protein, UniProt Q8TCQ1 1-289, looked up) E3 ubiquitin-protein ligase …: MLGWCEAIARNPHRIPNNTRTPEISGDLADASQTSTLNEKSPGRSASRSSNISKASSPTTGTAPRSQSRLSVCPSTQDICRICHCEGDEESPLITPCRCTGTLRFVHQSCLHQWIKSSDTRCCELCKYDFIMETKLKPLRKWEKLQMTTSERRKIFCSVTFHVIAITCVVWSLYVLIDRTAEEIKQGNDNGVLEWPFWTKLVVVAIGFTGGLVFMYVQCKVYVQLWRRLKAYNRVIFVQNCPDTAKKLEKNFSCNVNTDIKDAVVVPVPQTGANSLPSAEGGPPEVVSV", "values": [{"measurement": "Percent Infected R1", "result": 97.7, "unit": "%"}, {"measurement": "Z score R1", "result": 0.12}]}, {"molecule": "RNF166: human RING type E3 ligase expressed from lentiviral vector (protein, UniProt Q96A37 1-237, looked up, lentiviral expression, human RING type E3 ligase expressed from lentiviral vector) E3 ubiquitin-protein ligase …: MAMFRSLVASAQQRQPPAGPAGGDSGLEAQYTCPICLEVYHRPVAIGSCGHTFCGECLQPCLQVPSPLCPLCRLPFDPKKVDKATHVEKQLSSYKAPCRGCNKKVTLAKMRVHISSCLKVQEQMANCPKFVPVVPTSQPIPSNIPNRSTFACPYCGARNLDQQELVKHCVESHRSDPNRVVCPICSAMPWGDPSYKSANFLQHLLHRHKFSYDTFVDYSIDEEAAFQAALALSLSEN", "values": [{"measurement": "Percent Infected R1", "result": 94.5, "unit": "%"}, {"measurement": "Z score R1", "result": 0.08}]}, {"molecule": "RNF151: human RING type E3 ligase expressed from lentiviral vector (protein, UniProt Q2KHN1 1-245, looked up) RING finger protein 151: MGGGYDLNLFASPPDSNFVCSVCHGVLKRPARLPCSHIFCKKCILRWLARQKTCPCCRKEVKRKKVVHMNKLRKTIGRLEVKCKNADAGCIVTCPLAHRKGHQDSCPFELTACPNEGCTSQVPRGTLAEHRQHCQQGSQQRCPLGCGATLDPAERARHNCYRELHNAWSVRQERRRPLLLSLLRRVRWLDQATSVVRRELAELSNFLEEDTALLEGAPQEEAEAAPEGNVGAEVVGEPRANIPCK", "values": [{"measurement": "Percent Infected R1", "result": 92.8, "unit": "%"}, {"measurement": "Z score R1", "result": 0.05}]}, {"molecule": "RI NG1: human RING type E3 ligase expressed from lentiviral vector (protein, UniProt Q06587 1-406, looked up) E3 ubiquitin-protein ligase …: MTTPANAQNASKTWELSLYELHRTPQEAIMDGTEIAVSPRSLHSELMCPICLDMLKNTMTTKECLHRFCSDCIVTALRSGNKECPTCRKKLVSKRSLRPDPNFDALISKIYPSREEYEAHQDRVLIRLSRLHNQQALSSSIEEGLRMQAMHRAQRVRRPIPGSDQTTTMSGGEGEPGEGEGDGEDVSSDSAPDSAPGPAPKRPRGGGAGGSSVGTGGGGTGGVGGGAGSEDSGDRGGTLGGGTLGPPSPPGAPSPPEPGGEIELVFRPHPLLVEKGEYCQTRYVKTTGNATVDHLSKYLALRIALERRQQQEAGEPGGPGGGASDTGGPDGCGGEGGGAGGGDGPEEPALPSLEGVSEKQYTIYIAPGGGAFTTLNGSLTLELVNEKFWKVSRPLELCYAPTKDPK", "values": [{"measurement": "Percent Infected R1", "result": 92.9, "unit": "%"}, {"measurement": "Z score R1", "result": 0.05}]}, {"molecule": "RNF121: human RING type E3 ligase expressed from lentiviral vector (protein, UniProt Q9H920 2-327, looked up) E3 ubiquitin ligase RNF121: AAVVEVEVGGGAAGERELDEVDMSDLSPEEQWRVEHARMHAKHRGHEAMHAEMVLILIATLVVAQLLLVQWKQRHPRSYNMVTLFQMWVVPLYFTVKLHWWRFLVIWILFSAVTAFVTFRATRKPLVQTTPRLVYKWFLLIYKISYATGIVGYMAVMFTLFGLNLLFKIKPEDAMDFGISLLFYGLYYGVLERDFAEMCADYMASTIGFYSESGMPTKHLSDSVCAVCGQQIFVDVSEEGIIENTYRLSCNHVFHEFCIRGWCIVGKKQTCPYCKEKVDLKRMFSNPWERPHVMYGQLLDWLRYLVAWQPVIIGVVQGINYILGLE", "values": [{"measurement": "Percent Infected R1", "result": 84.1, "unit": "%"}, {"measurement": "Z score R1", "result": "−0.06"}]}, {"molecule": "RNF144A: human RING type E3 ligase expressed from lentiviral vector (protein, UniProt P50876 1-292, looked up) E3 ubiquitin-protein ligase …: MTTTRYRPTWDLALDPLVSCKLCLGEYPVEQMTTIAQCQCIFCTLCLKQYVELLIKEGLETAISCPDAACPKQGHLQENEIECMVAAEIMQRYKKLQFEREVLFDPCRTWCPASTCQAVCQLQDVGLQTPQPVQCKACRMEFCSTCKASWHPGQGCPETMPITFLPGETSAAFKMEEDDAPIKRCPKCKVYIERDEGCAQMMCKNCKHAFCWYCLESLDDDFLLIHYDKGPCRNKLGHSRASVIWHRTQVVGIFAGFGLLLLVASPFLLLATPFVLCCKCKCSKGDDDPLPT", "values": [{"measurement": "Percent Infected R1", "result": 97.7, "unit": "%"}, {"measurement": "Z score R1", "result": 0.12}]}]}
